The target in one assay is T1, rat RXFP1 (Rattus norvegicus, UniProt Q6R6I6).
T1 sequence (Q6R6I6 1-758): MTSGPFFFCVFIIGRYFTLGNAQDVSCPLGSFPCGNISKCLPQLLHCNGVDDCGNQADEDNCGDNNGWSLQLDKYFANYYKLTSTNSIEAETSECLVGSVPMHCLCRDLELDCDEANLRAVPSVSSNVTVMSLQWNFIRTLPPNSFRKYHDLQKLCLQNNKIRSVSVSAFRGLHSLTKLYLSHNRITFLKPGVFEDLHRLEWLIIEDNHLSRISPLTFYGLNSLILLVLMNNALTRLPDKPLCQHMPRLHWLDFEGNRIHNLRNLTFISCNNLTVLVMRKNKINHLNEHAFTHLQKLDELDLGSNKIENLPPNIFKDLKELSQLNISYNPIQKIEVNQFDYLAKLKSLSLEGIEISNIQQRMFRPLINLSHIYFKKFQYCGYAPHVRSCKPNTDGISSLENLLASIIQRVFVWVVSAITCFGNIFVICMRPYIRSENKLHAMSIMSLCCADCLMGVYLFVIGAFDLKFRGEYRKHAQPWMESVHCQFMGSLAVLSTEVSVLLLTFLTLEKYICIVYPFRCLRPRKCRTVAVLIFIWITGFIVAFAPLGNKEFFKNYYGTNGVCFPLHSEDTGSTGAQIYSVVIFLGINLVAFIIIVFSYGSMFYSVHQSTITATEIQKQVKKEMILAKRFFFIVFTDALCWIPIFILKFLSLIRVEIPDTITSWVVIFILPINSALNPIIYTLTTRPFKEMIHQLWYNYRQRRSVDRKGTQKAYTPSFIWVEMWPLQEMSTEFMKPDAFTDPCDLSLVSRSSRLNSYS
The assay can be described thus: Relaxin-stimulated cAMP assay in HEK293 stably expressing rat RXFP1. Particulars: three-point selectivity screen, n = 2. For orientation: Changes in cAMP serve as a functional read-out for many G protein-coupled receptors.

The target in assay [1] is T2, human LDLa peptide (UnitProt Q8WXD0 43-80) (Homo sapiens, UniProt Q8WXD0).
T2 construct: human LDLa peptide (Q8WXD0 43-80)
The assay can be described thus: ELISA binding to linker-less human LDLa peptide. As to the method:
The human/rat RXFP2 cross reactive antibodies belong to two epitope bins and were further evaluated for binding to the linker-less human LDLa peptide (UnitProt Q8WXD0 43-80) by ELISA. […] The different domain requirements for binding are consistent with results from the binning experiment showing 4F6 and 4G6 are in a separate bin from 4B1.
Rat LDLa-linker_ratFc, human LDLa-linker_ratFc, or ratFc, or human LDLa peptide (Q8WXD0 43-80) was diluted to 1 µg/mL in 1X PBS and immobilized in separate 96-well ELISA plates (Nunc Maxisorp), 50 µL/well. The plates were then incubated overnight at 4 °C. The following day the plates were washed three times with ELISA wash buffer (PBS + 0.05% Tween-20) and then blocked with ELISA blocking buffer (PBS + 0.05% Tween-20 + 1% BSA), 200 µL/well, and incubated 1 h at room temperature on a shaker. Plates were again washed three times followed by the addition of the primary antibodies. Hybridoma supernatant was added neat, 50 µL/well; mouse serum was added 1:100 and then serially diluted 1:2 for 8 points, 50 µL/well. Purified antibodies were added 5 µg/mL in the first well and serially diluted down the plate 1:2 for 8 points, 50 µL/well. Primary antibody was incubated for 1 h at room temperature on a shaker. […] Stopping solution (2N Sulfuric acid) was added to the plates 50 µL/well, and then read on a plate reader (SpectraMax Molecular Devices) at 450 nm.
In general terms: An ELISA detects its analyte on a solid surface through an enzyme-linked reagent.

Assay [2] concerns the target T3, rat RXFP2 (Rattus norvegicus, UniProt F7EMH8). The assay can be described thus: Cortisol secretion (ELISA) in H295R stably expressing rat RXFP2. The assay is classed as cell-based. More on the design: expressed in transfected cells. To be noted: H295R-rRXFP2, 3.5 nM INSL3, 48 h, read-out: IC50 on INSL3-induced cortisol release. How it is done:
RXFP2 antagonists were added to H295R-rRXFP2 before addition of INSL3 EC80 (3.5 nM) for 48 h, whereupon the cells and supernatants were collected. CYP11B1 and CYP11B2 mRNA were determined by qPCR and the RXFP2 blocker potencies were calculated (Fig. 5a). Fifteen antibodies have IC50s < 50 nM, and three of the top antibodies (1F2, 4G6, and 2D4) were selected for evaluation in steroid hormone secretion assays by ELISA.
The day after seeding, H295R cells were treated and incubated for 48 h before supernatants and cell lysates were collected. Treatments included INSL3, IgG, 1F2, and 4G6 at 0.035 pM–3.5 µM, 2D4 at 0.01 nM–1 uM, or phosphate buffered saline control. In RXFP2 antagonist assays, 3.5 nM INSL3 was used as the stimulus. Cortisol present in the adrenal cell supernatant at 48 h post treatment was detected by ELISA (R&D KGE008B). Sample dilution was optimized at 1/90 using a standard curve. Aldosterone was below the limit of detection by ELISA (R&D KGE016) and required liquid–liquid extraction (LLE) twice using methyl tetra butyl ether. Post extraction samples were dried (SPE Nitrogen dryer) and reconstituted for ELISA analysis. All samples were run in duplicates.

Assay [3] deals with T3, rat RXFP2. The assay can be described thus: INSL3-stimulated CYP11B2 mRNA expression in H295R stably expressing rat RXFP2. In kind it is cell-based. Details: expressed in transfected cells. To be noted: INSL3 EC80 (3.5 nM), 48 h, qPCR; N = 2. Put shortly: (§1)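 H295R cells stably expressing rat RXFP2 pretreated with antagonist, then stimulated 48 h with INSL3 at EC80 (3.5 nM). CYP11B1 and CYP11B2 mRNA quantified by qPCR as fold change. IC50 derived from fold change versus inhibitor concentration (nM).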
On the technique in general: Real-time PCR tracks product formation cycle by cycle.

For another assay, the target named is T4, human LDLa-linker (Homo sapiens, UniProt Q8WXD0).
T4 construct: human LDLa linker [huRXFP2-LDLa-linker(38-105)-ratFc-8XHIS]; enterokinase cleavage site (C); rat Fc (C, cleaved yes); 8xHis (C, cleaved yes); made in house; host or cells: Expi293
The assay can be described thus: Biacore S200 binding to human LDLa-linker protein. How it is done:
Goat anti Rat Fc gamma fragment specific (Jackson Immunoresearch, 112-005-071) was immobilized at 30 µg/mL to a Series S CM5 chip (Cytiva Life Sciences). In three separate runs, twenty different purified recombinant rat anti RXFP2 antibodies were then captured to the CM5 chip at a concentration of 5 µg/mL. The antibody panel was captured; rat LDLa-linker or human LDLa-linker protein was flowed as analyte at the following concentrations: 20 nM, 10 nM, 5 nM, 2.5 nM, […], and 0 nM. Antibody kinetics were evaluated using a 1:1 fit model (Biacore S200).

Assay [4] has as its target T3, rat RXFP2. The assay can be described thus: INSL3-stimulated CYP11B1 mRNA expression in H295R stably expressing rat RXFP2. The assay is classed as cell-based. More on the design: expressed in transfected cells. To be noted: INSL3 EC80 (3.5 nM), 48 h, qPCR; N = 2. Put shortly:
as §1

The results in this text go back to article PMC11162469, “Discovery of RXFP2 genetic association in resistant hypertensive men and RXFP2 antagonists for the treatment of resistant hypertension” (Scientific Reports, 2024).

In general, IC50 refers to the point on the concentration scale where inhibition reaches its midpoint.

T3 sequence (F7EMH8 20-737): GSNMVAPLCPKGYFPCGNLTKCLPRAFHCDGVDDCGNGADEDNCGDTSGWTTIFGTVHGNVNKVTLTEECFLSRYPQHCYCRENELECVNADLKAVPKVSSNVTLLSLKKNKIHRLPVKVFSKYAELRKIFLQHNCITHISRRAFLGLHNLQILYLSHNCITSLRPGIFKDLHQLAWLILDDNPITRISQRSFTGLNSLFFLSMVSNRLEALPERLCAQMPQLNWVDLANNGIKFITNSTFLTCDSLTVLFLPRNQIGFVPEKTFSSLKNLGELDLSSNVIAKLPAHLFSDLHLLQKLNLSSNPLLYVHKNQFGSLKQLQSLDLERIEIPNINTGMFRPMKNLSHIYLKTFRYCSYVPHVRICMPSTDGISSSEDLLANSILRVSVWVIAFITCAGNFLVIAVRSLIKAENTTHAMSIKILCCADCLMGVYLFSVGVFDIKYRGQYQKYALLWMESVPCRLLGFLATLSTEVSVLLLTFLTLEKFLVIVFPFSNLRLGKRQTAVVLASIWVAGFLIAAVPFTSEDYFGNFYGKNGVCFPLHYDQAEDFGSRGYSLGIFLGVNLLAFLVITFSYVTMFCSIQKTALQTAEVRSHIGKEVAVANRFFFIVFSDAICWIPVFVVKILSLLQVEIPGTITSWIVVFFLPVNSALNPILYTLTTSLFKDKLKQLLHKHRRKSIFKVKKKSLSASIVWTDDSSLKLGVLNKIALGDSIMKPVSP
T2 sequence (Q8WXD0 43-80 limits assumed): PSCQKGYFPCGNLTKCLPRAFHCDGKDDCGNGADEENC
T4 sequence (Q8WXD0 38-105): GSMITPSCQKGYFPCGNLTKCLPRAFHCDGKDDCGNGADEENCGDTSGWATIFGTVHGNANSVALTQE
Method for rat RXFP1: RXFP activity assays were developed in HEK293 with stable expression of RXFP2 or RXFP1.
The same approach was used to generate stable HEK293 lines expressing human and rat RXFP1 and RXFP2 cDNA. The cAMP assay was conducted using the Eurofin Hithunter kit per manufacturer’s instructions in a 384-well format. All dose curve fitting and EC50 and IC50 determinations were performed in Prism (v9.3.0) using the non-linear fit, variable slope (four parameter) function.

B1: 4G6: Human/rat cross-reactive RXFP2 monoclonal antibody, rat IgG2b backbone; binds the LDLa domain (antibody, V domains shown)
VH: EVQLQQSGPELVKPGASVKLSCKASGYTFTSYVMHWVKQKPEQGLEWIGYKNPSNDGIKYNEKFKGKATLTSDKSSNIAYMELFSLTSEDSAVYYCARSDFGSVWAMDYWGQGTSVTVSS
VL: SIVMTQTPKFLLVSAGDRVTITCKASQSVNDDIVWYQQKPGQSPKLLIYYASNRYTGVPDRFTGSGYGTDFTFTISTVQAGDLAVYFCQQDYSSPFTFGSGTKLEIK
As for B1, the “blockade of rRXFP1 (relaxin-stimulated cAMP)” value in the assay with rat RXFP1 is listed as “did not block”. Also, the “binding to linker-less human LDLa peptide” value in assay [1] is reported as “bind”. For the same molecule, the results for the IC50 with rat RXFP2 [2], in the assay with rat RXFP2 [3] and with rat RXFP2 [4] were 0.26 nM, 0.1 nM and 0.33 nM, respectively. In addition, the “cross reactivity to the human LDLa-linker” value with human LDLa-linker is listed as “cross reactivity”.
